Reference: patent US20260151470A1

Target: native PfCSP on PfCSP-expressing Plasmodium berghei (PbPf) sporozoites (Plasmodium falciparum) (UniProt P19597)
Assay: cell-based or functional assay

UniProt P19597, sequence (P19597 19-374 limits assumed): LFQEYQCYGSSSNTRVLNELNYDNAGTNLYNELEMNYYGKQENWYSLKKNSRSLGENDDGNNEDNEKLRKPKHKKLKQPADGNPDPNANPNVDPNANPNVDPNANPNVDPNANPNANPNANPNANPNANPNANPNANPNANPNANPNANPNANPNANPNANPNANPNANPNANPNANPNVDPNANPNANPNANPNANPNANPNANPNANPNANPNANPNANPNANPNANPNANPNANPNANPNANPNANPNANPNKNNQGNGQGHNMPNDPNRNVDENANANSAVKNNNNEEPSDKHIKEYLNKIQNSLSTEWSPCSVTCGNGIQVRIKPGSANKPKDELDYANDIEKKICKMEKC

Substance: anti-PfCSP 2A10 monoclonal antibody
- circumsporozoite precipitation reaction (CSPR), mean FSC-W: 1220
